The experiment deals with mMC4R-NanoLuc and mMC4R-HaloTag homodimer (mouse) (UniProt P56450). The experiment can be described thus: cell-based or functional assay.

The source of these data is patent US20180360972A1, “THERAPEUTIC COMPOUNDS” (REGENTS OF THE UNIVERSITY OF MINNESOTA, priority 2017, published 2018).

Sequence of mMC4R-NanoLuc and mMC4R-HaloTag homodimer (mouse) (P56450 whole entry, chain 1 of 2): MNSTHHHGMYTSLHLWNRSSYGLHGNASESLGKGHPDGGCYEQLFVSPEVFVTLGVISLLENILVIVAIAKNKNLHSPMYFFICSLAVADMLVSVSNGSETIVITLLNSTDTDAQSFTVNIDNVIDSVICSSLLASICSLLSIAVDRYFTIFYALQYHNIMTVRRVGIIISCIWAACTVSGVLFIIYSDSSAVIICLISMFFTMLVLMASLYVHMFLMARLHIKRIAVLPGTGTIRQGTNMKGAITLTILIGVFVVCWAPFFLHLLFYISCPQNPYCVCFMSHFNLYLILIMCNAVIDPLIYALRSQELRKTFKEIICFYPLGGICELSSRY
Sequence of mMC4R-NanoLuc and mMC4R-HaloTag homodimer (mouse) (P56450 whole entry, chain 2 of 2): as the sequence (P56450 whole entry, chain 1 of 2) above

For “α-MSH (from UniProt P01189 138-150) (ligand)”, the reduction in BRET signal at 10 µM compared to basal signal stood at 15%.
